In patent publication US20260185163A1, “MEN1 MUTATIONS AND USES THEREOF” (DANA-FARBER CANCER INSTITUTE, INC., priority 2022, published 2026):

Assays:
T349M = T349M (UniProt O00255); assay: fluorescence polarization competition
M327I = M327I (UniProt O00255); assay: fluorescence polarization competition
WT = WT (UniProt O00255); assay: fluorescence polarization competition
[1] = molecular target: StrepII-Avi-TEV-Menin T349M (recombinant mutant human Menin) (UniProt O00255); assay: fluorescence polarization
[2] = molecular target: StrepII-Avi-TEV-Menin M327I (recombinant mutant human Menin) (UniProt O00255); assay: fluorescence polarization
[3] = molecular target: StrepII-Avi-TEV-Menin (wild-type human Menin, recombinant, E. coli) (UniProt O00255); assay: fluorescence polarization

| Substance | IC50 (T349M) | Ki (T349M) | IC50 (M327I) | Ki (M327I) | IC50 (WT) | Ki (WT) | Kd [1] | Kd [2] | Kd [3] |
| --- | --- | --- | --- | --- | --- | --- | --- | --- | --- |
| MLL1 Peptide | 101 nM | 51.4 nM | 20.3 nM | 7.78 nM | 26.1 nM | 9.17 nM |  |  |  |
| N-terminally FITC-labelled MLL2(15-48) peptide |  |  |  |  |  |  | 3.7 nM | 2.56 nM | 1.78 nM |
